# Data reported in publication PMC9584410, “Structure of Klebsiella pneumoniae adenosine monophosphate nucleosidase” (PLoS ONE, 2022).
# Tests used:
# [1] = molecular target: Klebsiella pneumoniae adenosine monophosphate nucleosidase (Klebsiella pneumoniae); assay: cryo-EM structure; purified KpAmn vitrified on a C-flat grid (Vitrobot, 4°C, >90% humidity), Titan Krios 300 kV; apo; D3 symmetry confirmed by ab initio models and enforced in refinement
# purified protein = substrate: Nc1ncnc2c1ncn2[C@@H]1O[C@H](COP(=O)(O)O)[C@@H](O)[C@H]1O; assay: purified protein; type: biochemical, Klebsiella pneumoniae; conditions: 25 °C, 20 mM HEPES pH 7.5, 100 mM NaCl, 1 mM MnCl2, no ATP activator listed
stoichiometry N [1],Molecule,Km (purified protein)
6,Klebsiella pneumoniae adenosine monophosphate nucleosidase (enzyme),
,"KpAmn (K. pneumoniae adenosine monophosphate nucleosidase) (Klebsiella pneumoniae) (protein, expressed in E. coli BL21(DE3) R3 Rosetta; homohexamer, D3 symmetry; active site from two chains) MNIKAASLTPEQALAELEARYEASVTALRKAIGDYIDHNTLPDTEARAEGLFVYPQLSVSWDGADHKALKTRAWGRFTHAGCYTTTITNPKLFRNYLLEQLTLLYQDYGAHISVELSQHEIPYPYVIDGSTLTLDRSMSAGLTRYFPTTELSQIGDETADGLFHPTEFYPLSHFDARRVDFSLARLRHYTGTPAEHFQPYVLFTNYTRYVDEFVSWGCSQILDPDSPYIALSCAGGIWITAETEAPEQAISDLAWKKHQMPAWHLITHDGKGITLINIGVGPANAKTICDHLAVLRPDVWLMIGHCGGLRESQAIGDYVLAHAYLRDDHVLDAVLPPDIPIPSIAEVQRALYDATKQVSGMPGEEVKQRLRTGTVVTTDDRNWELRYSASALRFNLSRAVAIDMESATIAAQGYRFRVPYGTLLCVSDKPLHGEIKLPGQANRFYEGAISEHLQIGIRAIDLLRAEGDHMHSRKLRTFNEPPFR",390 µM
